B1: LINE1-full (parent)
chain: UACGUAGGUGGUUUUCCCCUGAUAGUGCUAAGGGGGCCUGGAAGUUUGGACUGGGCAGAGCUCAACACAGCGUGGCAAAGUGGCUGUGGCUAGACUGCCUCUCUGGAUUCCUCGUCACUCAGCAGGGCAUCUCUGAGAGAAAUGCC

The variants in this data set derive from B1. The experiment in a line: self-cleavage, relative activity (ratio to wild type); higher = more cleavage; in vitro, sequencing; the parent is a self-cleaving ribozyme.
U62A U132C: the self-cleavage is 0.06.
Take A59U U91C: the self-cleavage worked out at 0.34.
To C63G U130C belongs 0.34; to U62C A78C, 0.
For the variant U62C A78U, the self-cleavage is 0.04.
Regarding U62C A78G, the self-cleavage amounted to 0.05.
C63A U108C: the self-cleavage was determined as 0.08.
For the variant U62C A79G, the self-cleavage amounted to 0.06.
Regarding U62C A79U, the self-cleavage stood at 0.03.
Turning to A64C G75U, the self-cleavage worked out at 0.08.
On to A59G A129U, for which the self-cleavage is 0.19.
In the case of A59U U87A, the self-cleavage worked out at 0.07.
For the variant U62A U112A, the self-cleavage is 0.05.
For the variant U62A U112C, the self-cleavage stood at 0.04.
To A59G U119C belongs 0.13; to A59G U119A, 0.09.
To C63U A94G belongs 0.06; to U62C C99A, 0.03.
Regarding A64C A129G, the self-cleavage was determined as 0.51.
Consider A64C A129U, for which the self-cleavage came out at 0.14.
Consider U62C C66U, for which the self-cleavage turned out to be 0.03.
For C61A A124G, the self-cleavage stood at 0.04.
Regarding C63U C90U, the self-cleavage came to 0.
On to C61U U91C, for which the self-cleavage came out at 0.03.
As to U62A A94G, the self-cleavage was determined as 0.04.
In the case of G60U A65U, the self-cleavage is 0.02.
On to G60U U104C, for which the self-cleavage was 0.04.
For the variant A64C, the self-cleavage was 0.35.
Consider G60C U96A, for which the self-cleavage is 0.04.
To C63U A140G belongs 0.25; to C61A A94G, 0.04; to A59U A77G, 1.01.
The same measure for U62C A92G: 0.04; for U62C A92U: 0.04; for G60A C146A: 0.02.
Take C61G A77U: the self-cleavage is 0.04.
For G60A A77G, the self-cleavage was found to be 0.03.
Turning to U62A U87A, the self-cleavage was 0.04.
Take U62A U96C: the self-cleavage is 0.06.
U62A U96A: the self-cleavage came to 0.04.
Turning to C63U C123U, the self-cleavage was found to be 0.38.
To A59G U96G belongs 0.
For A59G U96C, the self-cleavage was 0.04.
For A59G C61A, the self-cleavage worked out at 0.03.
In the case of C63U U85C, the self-cleavage worked out at 0.08.
As for C63U U85G, the self-cleavage was 0.1.
As to C61U U119C, the self-cleavage was found to be 0.05.
Take G60A G139U: the self-cleavage is 0.03.
U62A U91C: the self-cleavage was 0.04.
On to G60U A64U, for which the self-cleavage was found to be 0.05.
To C63U belongs 0.36; to C63G, 0.09.
Consider C63A, for which the self-cleavage was found to be 0.06.
For U62A A141U, the self-cleavage is 0.01.
Take A59G C95A: the self-cleavage was found to be 0.01.
The same measure for U62G U115C: 0; for U62G C113U: 0.1.
Consider A59U G60A, for which the self-cleavage is 0.05.
In the case of A59G U73A, the self-cleavage stood at 0.08.
With A59G U73G, the self-cleavage amounted to 0.12.
Regarding C61U U73C, the self-cleavage came to 0.02.
For the variant U62A U108C, the self-cleavage is 0.04.
With G60A A121U, the self-cleavage was found to be 0.1.
U62A A64G: the self-cleavage stood at 0.05.
For U62A A64C, the self-cleavage worked out at 0.11.
To G60A C113U belongs 0; to C61A U62C, 0.08.
The same measure for C63U U109A: 0.12; for A59U A124G: 0.75.
On to A59U A124U, for which the self-cleavage was found to be 0.68.
As for C61U A124U, the self-cleavage is 0.03.
For C61U A124G, the self-cleavage was 0.04.
As to A59U A121U, the self-cleavage is 0.79.
Turning to C63A U100C, the self-cleavage came to 0.04.
Consider C61U U108C, for which the self-cleavage was determined as 0.01.
Regarding U62A U73A, the self-cleavage came to 0.04.
As to U62C C133A, the self-cleavage came out at 0.06.
The same measure for U62C C101U: 0.07; for U62C C101A: 0.04; for A59U U73A: 0.94.
Take A64C A79G: the self-cleavage amounted to 0.28.
For U62C C113U, the self-cleavage is 0.
Consider U62G U104C, for which the self-cleavage is 0.08.
With U62C C103U, the self-cleavage came to 0.03.
Turning to U62C A67G, the self-cleavage stood at 0.09.
As for U62C A67U, the self-cleavage came out at 0.05.
As for A59G U104C, the self-cleavage came to 0.15.
As for A59G U104G, the self-cleavage is 0.08.
As to G60A A94C, the self-cleavage was determined as 0.01.
To G60A A94G belongs 0; to A64C A117G, 0.42.
As for C61G A124U, the self-cleavage was 0.11.
Regarding U62G C84G, the self-cleavage turned out to be 0.49.
The same measure for U62A U130C: 0.05.
Regarding U62C C131A, the self-cleavage was found to be 0.03.
Regarding A59G C133G, the self-cleavage came to 0.12.
As to U62C U85C, the self-cleavage came to 0.05.
On to U62C U85A, for which the self-cleavage was determined as 0.03.
With U62C A64G, the self-cleavage amounted to 0.08.
The same measure for U62C G82A: 0.04; for A59U U108G: 0.84.
In the case of A59U U108C, the self-cleavage was found to be 1.09.
For C61U U130C, the self-cleavage came out at 0.05.
To A59G C71U belongs 0.04.
U62C U143G: the self-cleavage came out at 0.08.
For A64C A124U, the self-cleavage worked out at 0.27.
With A59U A136U, the self-cleavage stood at 0.87.
As for A59G A94C, the self-cleavage was found to be 0.29.
U62C A65G: the self-cleavage was found to be 0.1.
As to A59G C76U, the self-cleavage was found to be 0.12.
To C63A A124U belongs 0.03.
On to A59G G88A, for which the self-cleavage stood at 0.06.
With C61A A69U, the self-cleavage is 0.02.
As for C61U A77G, the self-cleavage stood at 0.06.
Regarding A59G A138G, the self-cleavage came to 0.1.
As to U62C U100A, the self-cleavage stood at 0.05.
Regarding C63U U96C, the self-cleavage is 0.
As to C63U U96A, the self-cleavage was 0.05.
With G60A U62A, the self-cleavage worked out at 0.01.
Consider A59G G106A, for which the self-cleavage turned out to be 0.06.
Consider A59G G97A, for which the self-cleavage came to 0.03.
For the variant A59U G126A, the self-cleavage worked out at 0.59.
To A59G C113U belongs 0.06; to A59G C113A, 0.07; to U62A C133U, 0.04.
Consider C63A G97A, for which the self-cleavage is 0.01.
With A59G U87G, the self-cleavage was 0.
To A59G U87C belongs 0.11.
Regarding A59G U87A, the self-cleavage was determined as 0.06.
Consider U62C C111U, for which the self-cleavage was determined as 0.02.
To U62C A117U belongs 0.03; to U62C A117C, 0.03; to U62C A117G, 0.1.
The same measure for A64C A78U: 0.46; for U62C C128A: 0.05.
On to A59G U130A, for which the self-cleavage was determined as 0.1.
Take A59G U130C: the self-cleavage came out at 0.17.
As for U62C U130A, the self-cleavage stood at 0.07.
The same measure for A59U C123U: 0.8; for U62A U81G: 0.02; for U62C U112G: 0.
The same measure for U62C U112A: 0.05; for U62C A140G: 0.04.
In the case of A59U A79C, the self-cleavage is 1.23.
Take G60A A138U: the self-cleavage was 0.05.
Consider U62A U109C, for which the self-cleavage came to 0.05.
As for A64C A107G, the self-cleavage stood at 0.36.
As to A59U A64U, the self-cleavage is 0.62.
For U62C G70A, the self-cleavage amounted to 0.01.
For C63A A142U, the self-cleavage is 0.05.
On to C63A A142G, for which the self-cleavage was found to be 0.06.
To A59U C128U belongs 1.02.
For G60U A138G, the self-cleavage stood at 0.04.
Take A59G A124G: the self-cleavage is 0.13.
In the case of C63U A77G, the self-cleavage turned out to be 0.62.
Regarding G60A U119A, the self-cleavage was determined as 0.11.
For the variant C63U A129U, the self-cleavage came to 0.54.
With U62C A121C, the self-cleavage turned out to be 0.15.
As for C61U A117G, the self-cleavage worked out at 0.05.
On to U62A A67U, for which the self-cleavage was 0.06.
With U62A A67G, the self-cleavage was determined as 0.07.
Consider A59U A94G, for which the self-cleavage is 1.71.
Regarding A64C A67U, the self-cleavage came out at 0.11.
Take A59G G114U: the self-cleavage is 0.07.
Consider U62C A138G, for which the self-cleavage was 0.06.
With A59U G89A, the self-cleavage was found to be 0.04.
As for A59U U102C, the self-cleavage worked out at 0.94.

The record behind these values is the RNAGym collection of RNA variant scans (doi:10.7554/elife.90254).
